Test results from patent publication US20240279288A1, “APPLICATION OF PLANT JAZ PROTEINS AND DERIVED POLYPEPTIDES IN PREVENTION AND TREATMENT OF HUMAN AND ANIMAL TUMORS” (ANYANG INSTITUTE OF SINO-COTTON INDUSTRY INNOVATION, priority 2021, published 2024).

What was measured:
GhNINJA = assay: Luciferase experiment in tobacco leaves with GhNINJA; assay type: binding, cotton; details: no fluorescence on the control
Text: Method of the luciferase experiment: GhJAZ1 (corresponding encoding gene sequence set forth in SEQ ID No. 39) was subcloned into pCAMBIA-CLuc vector (Chen, H., et al. “Firefly Luciferase Complementation Imaging Assay for Protein-Protein Interactions in Plants.” Plant Physiology 146.2(2008):368-376.) between KpnI and SalI cleavage sites, and the transcription factors such as GhMYC2 (corresponding encoding gene sequence set forth in SEQ ID No. 72), GhNINJA (corresponding encoding gene sequence set forth in SEQ ID No. 74), and GhCOI1 (corresponding encoding gene sequence set forth in SEQ ID No. 80) were subcloned into pCAMBIA-NLuc (Chen, H., et al. “Firefly Luciferase Complementation Imaging Assay for Protein-Protein Interactions in Plants.” Plant Physiology 146.2(2008):368-376.) between KpnI and SalI cleavage sites, respectively. […] Luciferase substrates were applied at the infected leaves before taking images and placed in a dark room for at least 6 min to quench fluorescence, followed by observation on the Nightowl-II LB983 instrument, using IndigoBasic software under the luciferase-5 min setting conditions.

[1] = system: Human ovarian cancer cells SKOV3 tumor; assay: Ovarian cancer mouse model in vivo, intratumoral injection; design: species or system nude mice; details: 5 mg/kg intratumoral injection every 2 days, 7 times
Protocol: Human ovarian cancer cells SKOV3 were cultured. Cells were digested by the trypsin before being used for tumor bearing. Cells were washed twice with PBS, followed by resuspending with PBS to a concentration of 1×10^8/mL. The cell suspension was subcutaneously injected into the axilla of nude mice, with an inoculation dose of 0.2 mL per nude mouse. After inoculation, nude mice were randomly assigned into two groups, which were PBS group and GhJAZ1 protein (5 mg/kg) treated group, respectively, with 8 mice in each group. After tumor inoculation, administration began when the tumor volume reached to about 50-100 mm^3. Administration by intratumoral injection was conducted every 2 days for a cycle of 14 days, in total of 7 times. Throughout the entire experiment, the body weight of nude mice was monitored while administration, and tumor size was measured using a vernier caliper according on the formula V=½×length×width×width, to calculate the tumor volume, and plot tumor growth curve. 14 days later, the tumor was removed, took images and weighted.

[2] = system: downstream genes of c-Myc in normal cell MCF10A; assay: RT-PCR of c-Myc downstream genes, MCF10A; assay type: cell-based, human
Protocol: Identification at the RNA level: RNA was extracted using RNA extraction kit (RNAprep Pure Polysaccharide Polyphenol Plant Total RNA Extraction Kit (DP441), manufacturer: TIANGEN BIOTECH (BEIJING) CO., LTD.), and then cDNA was obtained using two-step reverse transcription kit (a third-generation premix for two-step de-genomization and reverse transcription, Cat. No.: MR05201). cDNA as a template was added into a 96-well plate, with addition of SYBR®Green I chimeric dye (an antibody dye quantitative PCR premix, Cat. No.: MQ10101) and gene primers for three-step qPCR amplification. Finally, the relative gene expression was calculated based on the Ct value.
Wherein, the sequences of primers were as follows: […]

MCF7 breast cancer cells = assay: Cell cycle detection (PI DNA content), MCF7; assay type: cell-based, human; details: 0.691 μM, 24 h, vs PBS
Protocol: Cell cycle detection: cells were moderately digested by trypsin, and collected by centrifugation with supernatant removed, and then cells were washed with PBS, and collected by centrifugation at 1,500 rpm for 5 minutes to prepare a single-cell suspension (at a concentration of 1×10^6/ml). 1 ml of single-cell suspension was then taken and centrifuged with the supernatant discarded, and then 500 μl of 70% pre-cooled ethanol were added to fix the cells overnight at 4° C. The next day, cells were collected by centrifugation, resuspended with 1 ml of PBS and centrifuged, and then 100 μl of RNase A solution were added to the cell pellet, followed by placement in water bath at 37° C. for 30 min, and then 400 μl of PI staining solution was added and mixed well, followed by incubation at 4° C. in dark for 30 min and detection on the instrument to record under red fluorescence at the excitation wavelength of 488 nm. Specifically, a DNA content detection kit (cell cycle) (Solarbio, Cat. No.: CA1510) was used.

GhTPL = assay: CO-IP experiment with GhTPL; assay type: binding, cotton
Sequence of GhTPL (as listed by the source): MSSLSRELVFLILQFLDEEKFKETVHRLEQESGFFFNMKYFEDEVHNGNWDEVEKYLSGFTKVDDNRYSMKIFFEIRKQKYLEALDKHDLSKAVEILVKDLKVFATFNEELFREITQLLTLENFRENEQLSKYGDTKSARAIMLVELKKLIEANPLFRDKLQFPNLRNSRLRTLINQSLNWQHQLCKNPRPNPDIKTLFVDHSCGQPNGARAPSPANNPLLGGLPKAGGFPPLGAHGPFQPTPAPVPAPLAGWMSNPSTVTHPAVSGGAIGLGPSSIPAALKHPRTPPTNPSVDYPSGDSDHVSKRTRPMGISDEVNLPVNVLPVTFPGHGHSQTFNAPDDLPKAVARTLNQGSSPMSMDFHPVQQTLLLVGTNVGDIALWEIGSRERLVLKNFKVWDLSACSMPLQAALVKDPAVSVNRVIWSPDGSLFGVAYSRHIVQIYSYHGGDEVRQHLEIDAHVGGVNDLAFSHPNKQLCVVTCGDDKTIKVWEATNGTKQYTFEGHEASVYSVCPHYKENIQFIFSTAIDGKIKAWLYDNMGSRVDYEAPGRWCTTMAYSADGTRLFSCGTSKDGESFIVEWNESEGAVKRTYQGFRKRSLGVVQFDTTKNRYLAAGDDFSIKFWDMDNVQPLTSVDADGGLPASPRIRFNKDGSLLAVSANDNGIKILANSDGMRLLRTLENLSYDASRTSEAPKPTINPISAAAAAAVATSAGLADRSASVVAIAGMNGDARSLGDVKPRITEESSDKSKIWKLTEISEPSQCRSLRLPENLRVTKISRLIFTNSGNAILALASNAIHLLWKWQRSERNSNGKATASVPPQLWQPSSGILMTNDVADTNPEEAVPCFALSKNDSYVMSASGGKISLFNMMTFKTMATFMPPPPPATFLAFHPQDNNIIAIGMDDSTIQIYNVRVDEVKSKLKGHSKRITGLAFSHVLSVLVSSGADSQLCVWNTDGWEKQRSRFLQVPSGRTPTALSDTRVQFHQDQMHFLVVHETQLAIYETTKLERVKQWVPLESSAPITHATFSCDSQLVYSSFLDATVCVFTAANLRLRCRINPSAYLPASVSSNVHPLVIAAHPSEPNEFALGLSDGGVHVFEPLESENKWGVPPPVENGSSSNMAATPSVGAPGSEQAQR
Protocol: Steps of method of CO-IP experiment: Non-denaturing lysate was added to 293T cell culture plate (Pricella, Cat. No.: CL-0005), and the cells were completely lysed at 4° C. The lysate was centrifuged at 12,000 rpm for 10 min and the supernatant was collected. The corresponding antibody was added to the obtained non-denatured protein solution, which was incubated overnight at 4° C. Pierce™ protein A/G magnetic agarose (Thermo Fisher Scientific, Inc.) were washed with lysis buffer, followed by addition pre-treated beads to the cell lysate, and incubation at room temperature for 2 hours. The mixture was centrifuged at 4° C., 2,500 rpm for 5 min with supernatant removed, and the agarose beads were washed 5 times with 1 ml of lysis buffer. An appropriate amount of protein loading buffer was added to the pellet, and the sample was incubated in water bath at 100° C. for 10 min. The band of interest was detected by Western blotting.

Sequence of GhNINJA (as listed by the source): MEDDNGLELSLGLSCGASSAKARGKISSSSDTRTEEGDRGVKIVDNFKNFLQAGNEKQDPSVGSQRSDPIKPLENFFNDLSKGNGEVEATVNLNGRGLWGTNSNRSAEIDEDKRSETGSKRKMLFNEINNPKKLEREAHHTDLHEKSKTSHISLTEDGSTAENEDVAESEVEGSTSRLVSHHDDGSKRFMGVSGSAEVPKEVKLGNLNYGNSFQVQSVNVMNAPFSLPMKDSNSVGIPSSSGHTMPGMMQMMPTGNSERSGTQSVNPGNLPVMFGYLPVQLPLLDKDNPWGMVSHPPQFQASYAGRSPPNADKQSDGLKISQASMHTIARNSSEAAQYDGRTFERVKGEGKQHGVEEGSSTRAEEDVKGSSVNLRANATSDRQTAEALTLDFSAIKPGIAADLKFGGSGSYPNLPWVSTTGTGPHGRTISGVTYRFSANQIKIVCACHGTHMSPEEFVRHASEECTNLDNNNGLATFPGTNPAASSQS

B1: GhJAZ1: cotton JAZ1 protein, gene number Gh_A05G0260, sequence SEQ ID No. 4; prokaryotically expressed with His tag, about 30 KD (protein)
chain: MSSCSESTAMKPARSPEKPSFAQTCNLLSQYLKEKGSFGDLSLGMTCNVEANGTPVVPPPTMNLFPLNDKSDDVCGRNGGNPKNLTSMDLFPQQAGLASKDDSPNKLEPQTAPMTIFYGGQVIVFNDFPANKAKEIMLLASNSSSQSNNSFNPIPFTSSIARSPIESSIGVPPTSKPVHPAQRAVPGDLPIARRASLHRFLEKRKDRITAKAPYQINNSAAAPSLSGDNKSWLGLAAQSP
modifications: His tag
notes: prokaryotically expressed with His tag, about 30 KD
fluorescence with GhNINJA after applying luciferase substrate (GhNINJA): stronger fluorescence
volume of tumors vs control group ([1]; SKOV3 in nude mice): highly significantly lower
weight of tumors vs control group ([1]; tumors removed after 14 days): highly significantly lower
expression of Bcl2 and MCM5 [2]: significantly decreased but at a minor extent
expression of P21C, CNB1, CCND1, and CCNE1 ([2]; at a minor extent): significantly increased
proportion of G2-M phase cells (MCF7) (MCF7 breast cancer cells): increase
proportion of S-phase cells (MCF7) (MCF7 breast cancer cells): decrease
interaction with GhTPL (GhTPL): interacts
